This note sets out measurements from the nanobody polyreactivity screen of Harvey et al. (2022).

The series in a line: yeast display, Sf9 membrane polyspecificity reagent, FACS + sequencing; frameworks hold sequencing errors. In outline:
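Sorting gates, low and high (top ~1%), were placed on anti-HA fluorescence to track expression and on streptavidin fluorescence to track reagent binding. A clone's polyreactivity label is taken from the gate it came out of. The reagent was 10% biotinylated, detergent-solubilized Sf9 membrane, applied for 1 hour at 4 °C to galactose-induced yeast display cells.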
“QVQHVESGGGLVQAGGSLRLSCAASGFTFLNYSMGWYRQAPGKERELVAAISFSTGRTYYADSVKGRFTISRDNAKNTVYLQMNSLKPEDTAVYYCNAERGFSDYWGQGTQVTVSS”: the “polyreactivity (PSR sort gate)” value is “high polyreactivity”.
In the case of “QVQHVESGGGLVQAGGSLRLSCAASGFTFTAYAMGWYRQAPGKERELVAAISYRGGRTNYAYSVKGRFTISRDNAKNTVYLQMNSLKPEDTAVYYCAARPRISTREMDYWGQGTKVTVSS” it was “high polyreactivity”; in that of “QVQHVESGGGLVQAGGSLRLSCAASGFTFYSYAMGWYRQSPGKERELVANITIGGSTYADSVKGRFTISRENAKNTVYLQMNSLKPEDTAVYYCAKQYGGRYGYWGQGTQVTVSS”, “low polyreactivity”; in that of “QVQHVESGGGLVQAGGSLRLSCAASGGIFSIYTRGWYRQAPGKERELVAAITSGGNTNYADSVKGRFTISRDNAKNTVYLQMNSLKPEDTAVYYCAKTYTEYSVTRSGARMDYWGQGTQVTVSS”, “low polyreactivity”.
With “QVQHVESGGGLVQAGGSLRLSCAASGGIFVANAMGWYRQAPGKERELVAAISRSGGSTYYADSVKGRFTISRDNAKNTVYLQMNSLKPEDTAVYYCAAKSRRQYTVGLTSDYWGQGTQVTVSS”, the “polyreactivity (PSR sort gate)” value is “low polyreactivity”.
Take “QVQHVESGGGLVQAGGSLRLSCAASGGTFRWNAMGWYRQAPGQERELVAAITKSGGSTYYADSVKGRFTISRDNAKNTVYLQMNSLKPEDTAVYYCATDYLRRRDYWGQGTQVTVSS”: the “polyreactivity (PSR sort gate)” value is reported as “high polyreactivity”.
Consider “QVQHVESGGGLVQAGGSLRLSCAASGIIFGGNAMGWYRQAPGKERELVAGISGSGASTYYADSVKGRFTISRDNAKNTVYLQMNSLKPEDTAVYYCAADGYPGDDYWGQGTQVTVSS”, for which the “polyreactivity (PSR sort gate)” value was “high polyreactivity”.
Turning to “QVQHVESGGGLVQAGGSLRLSCAASGIIFGSNVMGWYRQAPGKERELVAAISYSGASTYYADSVKGRFTISRDNAKNTVYLQMNSLKPEDTAVYYCAADGHRNGYYYHEYDSWGQGTQVTVSS”, the “polyreactivity (PSR sort gate)” value is “low polyreactivity”.
In the case of “QVQHVESGGGLVQAGGSLRLSCAASGIIFIGNAMGWYRQAPGKEGALVAANTDSGGRTYYADSVKGRFTISRDNAKNSVYLQMNCLKPEDTAVYYCARDRGKNTPYDYWGQGTLVTVSS” it was “low polyreactivity”.
In the case of “QVQHVESGGGLVQAGGSLRLSCAASGIIIKFYAMGWYRKAPVKERELVATITFSSGTTYYADSVKGRFTMSRDNAKTTVYFQMNSLKPEDTAVYYCAASTLPAWPYDGPAGPRYDYWGQGTQVTVSS” it was “low polyreactivity”.
In the case of “QVQHVESGGGLVQAGGSLRLSCAASGITFSYYAMGWYIQAPGKEREFVAAISWSGGSTYYADSVKGRFTISRDNAKNTVYLQMNSLKPEVTAVYYCAADRYPYGLDYWGQGTQVTVSS” it was “high polyreactivity”; in that of “QVQHVESGGGLVQAGGSLRLSCAASGLIFSKNVMGWYRQARGKEREFVAAISQRGGSTYYADSVKGRFTISRDNAKNTVYVQMNSLKPEDTAVYYCAADNTVSHEDFWGQGTQVTVSS”, “high polyreactivity”; in that of “QVQHVESGGGLVQAGGSLRLSCAASGLIFWLNAMGWYRHEPGKEREMVATITAGGDDTNYADPVKGRFTISRDNAKNTVYLQMNSLKPEDTAVYYCAKSRTRSGHYGYDYWGQGTQVTVSS”, “low polyreactivity”.
For “QVQHVESGGGLVQAGGSLRLSCAASGLILVYYAMGWYRQAPGKERELVAAITPGGSTKYADSVKGRFTISRDNAKNTVYLQMNSLKPEDTAVYYCAVDGDCHEPGNYIYEYDYWGQGTQVTVSS”, the “polyreactivity (PSR sort gate)” value is given as “low polyreactivity”.
In the case of “QVQHVESGGGLVQAGGSLRLSCAASGLTFTYYVKGCYRQAPGKERELVAAITVSGGSTYYADSVKGRFTISRDNAKNTVYLQMNSLKPEDTAVYYCAADAYSGYSDYYWGQGTQVTVSS”, the “polyreactivity (PSR sort gate)” value was “low polyreactivity”.
In the case of “QVQHVESGGGLVQAGGSLRLSCAASGNNVMGWYRQAPGKDRELVGAISWSGTSTYADSVKGRFTISRVNAKNTVYLKMNSLKPEDTAVYYCAAEQQGRNYRAYRRYDYWGQGTQVTVSS” it was “low polyreactivity”; in that of “QVQHVESGGGLVQAGGSLRLSCAASGNTFSANAMGWYRQAPVKEREFVASITWSGGSTYYADSVKGRFTFSRDNAKNTVYLQMNSLKPEDTAVYYCAAESWFKYDYWGQGTQVTVSS”, “low polyreactivity”; in that of “QVQHVESGGGLVQAGGSLRLSCAASGRIFGVYVMGWYRQAPGKERELVAAITGGGSTYYADSVKGRFTISRDNAKNTVYLQMNSLKPEDTAVYYCAARYLVTYGHQQRYYYWGQGTQVTVSS”, “high polyreactivity”.
For “QVQHVESGGGLVQAGGSLRLSCAASGRIFPYYAMGWYRQAPGKEREFVAAITKRGGSTSYADSVKGRFTISRDNAKNTVYLQMNSLKPEDTAVYYCAAAGVYYGVRGTTYAYDYWGQGTQVTVSS”, the “polyreactivity (PSR sort gate)” value is recorded as “low polyreactivity”.
Consider “QVQHVESGGGLVQAGGSLRLSCAASGRIFRYNAMGWYRQAPGKERELVAAITNGGSTNYADSVKGRFTISRDNAKNTVYLQMNSLKPEDTAVYYCNAQGRRYSQRYYYWGQGTQVTVSS”, for which the “polyreactivity (PSR sort gate)” value is on record as “high polyreactivity”.
As for “QVQHVESGGGLVQAGGSLRLSCAASGRIFVNYAMGWSRQAPGKERELVAAITYIDSGTYYADSVKGRFTISRDNAKNTVYFQRNSLKPEDTAVYYCAVRLNSDSNRKTQKYGYWGQGTQVTVSS”, the entry is “low polyreactivity”; as for “QVQHVESGGGLVQAGGSLRLSCAASGRIFVYYAMGWYRQEPGKERELVATISSGGSTYYADSVKGRFTISRDNAKNTVYLHMNSLKPEDTAVYYCNARDWYLWSTYRSWYDYWGEGTQVTVSS”, “low polyreactivity”; as for “QVQHVESGGGLVQAGGSLRLSCAASGRIFYLNAMGWYREAPGKERELVAAINTSGDSTYYADSVKGRFTISRDNAKNTVYLQMNSLKPVDTAVFYCAAYVIGPDQFIYDYWGQGTQVTVSS”, “low polyreactivity”.
Take “QVQHVESGGGLVQAGGSLRLSCAASGRIIYRYAMGWYRQATGKERELVATITWSTTSTYYADSVKGRFTISREYAKNTVYLQMNSLKPVDTAVYYCAASIIPGFRRDPFGYWGQGTQVTVSS”: the “polyreactivity (PSR sort gate)” value is “low polyreactivity”.
For the sequence “QVQHVESGGGLVQAGGSLRLSCAASGRILKPNAMGWYRPAPGKERELVAAIRWRGDITYYADSVKGRFTISRDNAKNTVYLQMNSLKPEDTAVYYCNARTYYRRQKYDYWGQGTKVTVSS”, the “polyreactivity (PSR sort gate)” value was “high polyreactivity”.
In the case of “QVQHVESGGGLVQAGGSLRLSCAASGRISLSNAMGWYRQAPGKEREFVAAITKRSDRTYYADSVKGRFTISRDNAKNTVYLQMNSLKPEDTAVYYCAAKPLFGTRDDYWGLGTQVTVSS” it was “low polyreactivity”; in that of “QVQHVESGGGLVQAGGSLRLSCAASGRTFARYTMGWYRQAPGKERELVAVISRSGGSTYYADSVKGRFTISRDNAKNSVYLQMNSVKPEDTAVYYCAAGDFVVSTLEYYYWGQGTQVTVSS”, “high polyreactivity”.
In the case of “QVQHVESGGGLVQAGGSLRLSCAASGRTFDWYAMGRYRQAPGKEMELVAAISSGGSTYYADSVKGRFTISRDNAKNTVYLQMNSLKPEDTAVYYCAAEWHYIYAYDYWGQGTQVTVSS” it was “low polyreactivity”.
For the sequence “QVQHVESGGGLVQAGGSLRLSCAASGRTFKGYAMGWYRQAPGKESQLVAGISTGGNTNYADSVMGRFTISRDNAKNTVYLQMNSLKPEDTAVYYCNAVYRGFTHYTGYEYWGQGTQVTVSS”, the “polyreactivity (PSR sort gate)” value is reported as “high polyreactivity”.
As to “QVQHVESGGGLVQAGGSLRLSCAASGRTFQWYTLGWYRQAPGKERELVAAISWSGTSTYYADSVKGRFTISRDNEKNTVYLLMNSLKPEDTAVYYCAAKTYPSLFFHYGYWGQGTQVTVSS”, the “polyreactivity (PSR sort gate)” value is “low polyreactivity”.
